Laboratory results as given in US20200123260A1.

Tests used:
[1] = target: hTrkA in the SHC1 recruitment assay (U2OS, Discoverx Pathhunter) (human) (UniProt P04629); assay: cell-based or functional assay
[2] = target: hTrkB-a isoform fused to a small peptide epitope, in U2OS cells (Discoverx Pathhunter) (human) (UniProt Q16620); assay: cell-based or functional assay
[3] = target: hTrkC in the SHC1 recruitment assay (U2OS, Discoverx Pathhunter) (human) (UniProt Q16288); assay: cell-based or functional assay
Sequence of hTrkC in the SHC1 recruitment assay (U2OS, Discoverx Pathhunter) (human) (Q16288 32-839): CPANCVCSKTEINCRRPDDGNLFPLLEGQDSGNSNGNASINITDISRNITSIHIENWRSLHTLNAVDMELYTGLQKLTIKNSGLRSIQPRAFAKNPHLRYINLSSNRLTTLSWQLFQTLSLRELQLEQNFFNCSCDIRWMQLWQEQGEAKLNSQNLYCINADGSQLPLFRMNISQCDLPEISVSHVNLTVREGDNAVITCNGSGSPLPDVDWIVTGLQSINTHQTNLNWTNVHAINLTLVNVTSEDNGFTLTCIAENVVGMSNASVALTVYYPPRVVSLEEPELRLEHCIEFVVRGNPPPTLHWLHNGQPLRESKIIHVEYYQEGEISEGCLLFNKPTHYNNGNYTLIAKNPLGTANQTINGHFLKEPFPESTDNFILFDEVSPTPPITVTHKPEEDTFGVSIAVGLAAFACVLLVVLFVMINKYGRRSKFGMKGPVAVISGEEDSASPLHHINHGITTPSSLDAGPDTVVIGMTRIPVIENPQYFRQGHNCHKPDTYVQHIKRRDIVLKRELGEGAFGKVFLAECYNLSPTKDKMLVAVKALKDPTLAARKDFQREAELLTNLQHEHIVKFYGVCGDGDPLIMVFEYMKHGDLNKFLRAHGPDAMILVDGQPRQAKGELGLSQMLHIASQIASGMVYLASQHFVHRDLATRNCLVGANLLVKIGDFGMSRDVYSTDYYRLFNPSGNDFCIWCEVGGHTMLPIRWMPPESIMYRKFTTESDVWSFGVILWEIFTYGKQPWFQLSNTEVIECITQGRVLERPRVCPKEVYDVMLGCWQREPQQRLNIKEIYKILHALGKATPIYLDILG

[4] = target: human TrkC (open reading frame from NM_001012338.1) in HEK-293 cells (human) (UniProt Q16288); assay: cell-based or functional assay
Sequence of human TrkC (open reading frame from NM_001012338.1) in HEK-293 cells (human) (Q16288 32-839): as above

[5] = target: TrkB, Dog (Canis familiaris, XM_851329) on 293 cells (dog (Canis familiaris)); assay: cell-based ELISA on transfected 293 cells
Sequence of TrkB, Dog (Canis familiaris, XM_851329) on 293 cells (dog (Canis familiaris)) (Q16620 other isoform, or with tags, fused parts or gaps limits assumed): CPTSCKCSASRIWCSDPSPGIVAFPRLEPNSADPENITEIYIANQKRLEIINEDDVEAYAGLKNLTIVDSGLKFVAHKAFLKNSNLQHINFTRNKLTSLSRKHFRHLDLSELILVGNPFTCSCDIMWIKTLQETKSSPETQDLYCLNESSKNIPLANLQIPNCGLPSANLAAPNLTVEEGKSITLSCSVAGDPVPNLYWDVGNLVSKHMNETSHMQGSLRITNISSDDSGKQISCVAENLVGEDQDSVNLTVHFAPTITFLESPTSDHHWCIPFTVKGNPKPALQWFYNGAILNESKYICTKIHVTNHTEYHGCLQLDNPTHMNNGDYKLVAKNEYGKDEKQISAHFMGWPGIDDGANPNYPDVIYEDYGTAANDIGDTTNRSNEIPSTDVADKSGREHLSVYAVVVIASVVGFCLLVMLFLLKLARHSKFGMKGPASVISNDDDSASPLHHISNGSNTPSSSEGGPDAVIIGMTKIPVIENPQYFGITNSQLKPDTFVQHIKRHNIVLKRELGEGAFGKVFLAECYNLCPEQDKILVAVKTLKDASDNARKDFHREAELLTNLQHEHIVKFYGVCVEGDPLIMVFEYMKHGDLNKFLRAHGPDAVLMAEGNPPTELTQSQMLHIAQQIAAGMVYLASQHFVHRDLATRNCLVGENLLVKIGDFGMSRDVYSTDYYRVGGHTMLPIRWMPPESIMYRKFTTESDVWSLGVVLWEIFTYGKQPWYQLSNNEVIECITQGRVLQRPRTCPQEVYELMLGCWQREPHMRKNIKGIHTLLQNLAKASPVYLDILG

[6] = target: TrkB, Dog (Canis familiaris, XM_851329) on 293 cells (dog (Canis familiaris)); assay: cell-based ELISA on transiently transfected HEK293 cells

Sequence of hTrkA in the SHC1 recruitment assay (U2OS, Discoverx Pathhunter) (human) (P04629 33-796): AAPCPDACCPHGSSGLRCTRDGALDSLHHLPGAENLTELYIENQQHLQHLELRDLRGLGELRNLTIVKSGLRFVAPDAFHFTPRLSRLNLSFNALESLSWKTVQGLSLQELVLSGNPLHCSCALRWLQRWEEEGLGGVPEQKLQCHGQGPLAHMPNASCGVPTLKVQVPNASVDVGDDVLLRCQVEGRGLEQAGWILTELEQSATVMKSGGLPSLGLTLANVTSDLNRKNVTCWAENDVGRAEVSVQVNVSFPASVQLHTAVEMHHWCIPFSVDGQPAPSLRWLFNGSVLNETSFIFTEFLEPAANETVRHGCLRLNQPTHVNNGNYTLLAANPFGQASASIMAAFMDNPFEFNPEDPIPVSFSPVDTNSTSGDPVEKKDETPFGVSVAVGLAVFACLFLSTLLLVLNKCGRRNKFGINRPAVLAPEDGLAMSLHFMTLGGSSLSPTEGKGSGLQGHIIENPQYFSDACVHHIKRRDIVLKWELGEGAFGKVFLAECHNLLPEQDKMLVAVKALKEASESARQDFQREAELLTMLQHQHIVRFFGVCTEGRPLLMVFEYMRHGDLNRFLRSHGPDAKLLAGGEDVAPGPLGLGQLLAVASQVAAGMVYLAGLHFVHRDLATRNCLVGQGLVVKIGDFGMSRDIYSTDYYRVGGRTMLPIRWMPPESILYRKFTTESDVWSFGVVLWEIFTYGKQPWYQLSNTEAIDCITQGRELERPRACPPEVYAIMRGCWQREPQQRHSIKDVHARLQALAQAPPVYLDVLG
Sequence of hTrkB-a isoform fused to a small peptide epitope, in U2OS cells (Discoverx Pathhunter) (human) (Q16620 32-822): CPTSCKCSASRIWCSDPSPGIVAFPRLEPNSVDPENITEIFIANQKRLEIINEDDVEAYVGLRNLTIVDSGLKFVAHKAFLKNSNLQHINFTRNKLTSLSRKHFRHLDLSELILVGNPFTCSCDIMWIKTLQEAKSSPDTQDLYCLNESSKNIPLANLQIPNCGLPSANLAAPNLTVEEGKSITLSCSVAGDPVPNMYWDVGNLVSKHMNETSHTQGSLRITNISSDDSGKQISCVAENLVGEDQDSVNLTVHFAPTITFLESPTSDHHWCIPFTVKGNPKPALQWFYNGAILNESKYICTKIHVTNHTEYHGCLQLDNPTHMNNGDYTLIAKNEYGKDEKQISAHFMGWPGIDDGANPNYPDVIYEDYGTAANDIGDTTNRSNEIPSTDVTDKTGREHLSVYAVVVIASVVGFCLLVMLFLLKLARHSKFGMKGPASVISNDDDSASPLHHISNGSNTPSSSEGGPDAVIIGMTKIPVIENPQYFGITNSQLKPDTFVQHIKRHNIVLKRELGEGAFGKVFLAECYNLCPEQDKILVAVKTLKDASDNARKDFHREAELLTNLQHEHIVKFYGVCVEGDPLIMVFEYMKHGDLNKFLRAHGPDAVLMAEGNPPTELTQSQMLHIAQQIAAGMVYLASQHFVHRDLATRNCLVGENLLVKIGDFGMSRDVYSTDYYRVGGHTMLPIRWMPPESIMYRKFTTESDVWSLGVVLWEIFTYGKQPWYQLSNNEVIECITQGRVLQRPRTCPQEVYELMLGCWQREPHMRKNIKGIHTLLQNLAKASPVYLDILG

B1: NT3 (R&D267N3) (ligand, UniProt P20783 139-257, looked up, species assumed)
Neurotrophin-3: YAEHKSHRGEYSVCDSESLWVTDKSSAIDIRGHQVTVLGEIKTGNSPVKQYFYETRCKEARPVKNGCRGIDDKHWNSQCKTSQTYVRALTSENNKLVGWRWIRIDTSCVCALSRKIGRT
modifications: Neurotrophin-3
- EC50, SHC1 recruitment assay [1]: 1.49 nM
- Fold-increase, SHC1 recruitment assay [1]: 9.2 fold
- EC50, SHC1 recruitment assay [2]: 0.5 nM
- Fold-increase, SHC1 recruitment assay [2]: 7.7 fold
- EC50, SHC1 recruitment assay [3]: 0.86 nM
- Fold-increase, SHC1 recruitment assay [3]: 10.5 fold
- Cre-luciferase reporter, fold increase [4]: 2.9 fold

B2: TAM-163 (huTOA-1 v1.0/1.4) (antibody, human IgG1, kappa, V domains shown)
VH: EVQLVESGGGLVQPGGSLRLSCAASGYSFTAYFMNWVRQAPGKGLEWVARINPNNGDTFYTQKFKGRFTISRDNAKNSLYLQMNSLRAEDTAVYYCARRDYFGAMDYWGQGTLVTVSS
VL: DIQMTQSPSSLSASVGDRVTITCRASQTISNNLHWYQQKPGKAPKLLIKSASLAISGVPSRFSGSGSGTDFTLTISSLQPEDFATYYCQQSNSWPNTFGGGTKVEIKR
- EC50 [5]: 0.55 nM
- EC50 [6]: 0.94 nM

B3: mouse TOA-1 antibody (antibody, mouse IgG1, V domains shown)
VH: EVQLQQSGPELVKPGASMKISCKTSGYSFTAYFMNWVKQSHGKSLEWIGRINPNNGDTFYTQKFKGKATLTVDKSSNTAHMELLSLTSEDSAIYYCGRRDYFGAMDYWGQGTSVTVSS
VL: AIVLIQSPATLSVTPGDSVSLSCRASQTISNNLHWYQQKSHESPRLLIKSASLAISGIPSRFSGSGSGTDFTLSISSVETEDFGMYFCQQSNSWPNTFGGGTKLEIK
- EC50 [5]: 0.65 nM

B4: NT-4 (ligand, UniProt P34130 81-210, looked up, species assumed)
Neurotrophin-4: GVSETAPASRRGELAVCDAVSGWVTDRRTAVDLRGREVEVLGEVPAAGGSPLRQYFFETRCKADNAEEGGPGAGGGGCRGVDRRHWVSECKAKQSYVRALTADAQGRVGWRWIRIDTACVCTLLSRTGRA
modifications: Neurotrophin-4
- EC50, SHC1 recruitment assay [1]: 0.43 nM
- Fold-increase, SHC1 recruitment assay [1]: 9 fold
- EC50, SHC1 recruitment assay [2]: 0.33 nM
- Fold-increase, SHC1 recruitment assay [2]: 6.1 fold
- Fold-increase, SHC1 recruitment assay [3]: 1.1 fold
